Target: CslA-His12 (cellulose synthase-like protein CslA from Streptomyces lividans, full length, C-terminal 12-histidine tag) (Streptomyces lividans)

- activity (UDP release) of the CslA–GlxA^12-261 complex against the wild-type CslA–GlxA complex: 40%
Substance: Flag-tagged GlxA^12-261 (truncated GlxA lacking Region-2 and Domain 3) (domain or fragment)

From article PMC11022532
